Reference: PMC5805342

biological target: Plasminogen (human)

| Substance | KM for plasminogen activation (indirect chromogenic assay with S-2251; plasminogen 24-0 μM, 1 nM muPA, 37°C) [µM] | kcat for plasminogen activation (indirect chromogenic assay with S-2251; plasminogen 24-0 μM, 1 nM muPA, 37°C) [s⁻¹] |
| --- | --- | --- |
| Full-length muPA Y149A (enzyme) | 12 | 0.06 |
| Full-length muPA N77A (enzyme) | 5.1 | – |
| Full-length muPA P78A (enzyme) | 3.9 | – |
| Full-length muPA K72A (enzyme) | 3.1 | – |
| Full-length murine urokinase-type plasminogen activator (muPA) (from UniProt P06869 21-433) (enzyme) | 9.8 | – |
| Full-length muPA S74A (enzyme) | 22 | – |
| Full-length muPA Y76A (enzyme) | 5 | – |
| Full-length muPA E73A (enzyme) | 24.6 | – |
